Data on two substances can be found in patent US7262271.

The test system of the data set is Antisera against the PAS1 peptides.

For P. gingivalis Arg-specific proteinase, the Arg-specific proteolytic activity result is “Antisera against the PAS1 peptides inhibited both Arg- and Lys-specific proteolytic activity”.

P. gingivalis Lys-specific proteinase: the Lys-specific proteolytic activity result is “Antisera against the PAS1 peptides inhibited both Arg- and Lys-specific proteolytic activity”.
